The text below walks through data of the supplement of paper PMC5998384.

The test system of series [1] is HeLa Kyoto. Put plainly: melting temperature (median over replicates), in situ; higher = more thermally stable.
Series [2] deals with HeLa Kyoto. As to the kind of experiment: solubility in G1/S (NP-40 vs SDS abundance) (log2 ratio); higher = more soluble. Particulars: cell cycle stage: G1/S.
The subject of series [3] is HeLa Kyoto. As to the kind of experiment: thermal stability score vs G1/S (z-score of summed log2 fold changes over temperatures); higher = more thermally stable than in G1/S.
The test system of series [4] is HeLa Kyoto. As to the kind of experiment: solubility change mitosis vs G1/S (difference of NP-40 vs SDS log2 ratios) (log2 ratio difference); higher = more soluble in mitosis.
Where [5] appears, read: cell cycle stage: early G1 (4.5 h after nocodazole release).
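Wherever melting temperature (median over replicates), in situ is given: HeLa Kyoto cells synchronized by double thymidine or nocodazole block, proteins quantified by TMT10plex mass spectrometry, three independent biological replicates.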
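Wherever solubility change mitosis vs G1/S (difference of NP-40 vs SDS log2 ratios) is given: synchronized HeLa Kyoto cells (double thymidine block for G1/S, nocodazole release for mitosis), protein amounts in NP-40 versus SDS lysates quantified by mass spectrometry, three biological replicates.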
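Wherever solubility in G1/S (NP-40 vs SDS abundance) is given: HeLa Kyoto cells arrested at G1/S by double thymidine block, proteins quantified by TMT10plex mass spectrometry in mild NP-40 versus SDS extracts, three biological replicates.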
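Wherever thermal stability score vs G1/S (z-score of summed log2 fold changes over temperatures) is given: synchronized HeLa Kyoto cells, proteins quantified by TMT10plex mass spectrometry, three biological replicates, mitosis taken 0.5 h after nocodazole release, G1/S directly after double thymidine block.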

Consider “MARKRAAGGEPRGRELRSQKSKAKSKARREEEEEDAFEDEKPPKKSLLSKVSQGKRKRGCSHPGGSADGPAKKKVAKVTVKSENLKVIKDEALSDGDDLRDFPSDLKKAHHLKRGATMNEDSNEEEEESENDWEEVEELSEPVLGDVRESTAFSRSLLPVKPVEIEIETPEQAKTRERSEKIKLEFETYLRRAMKRFNKGVHEDTHKVHLLCLLANGFYRNNICSQPDLHAIGLSIIPARFTRVLPRDVDTYYLSNLVKWFIGTFTVNAELSASEQDNLQTTLERRFAIYSARDDEELVHIFLLILRALQLLTRLVLSLQPIPLKSATAKGKKPSKERLTADPGGSSETSSQVLENHTKPKTSKGTKQEETFAKGTCRPSAKGKRNKGGRKKRSKPSSSEEDEGPGDKQEKATQRRPHGRERRVASRVSYKEESGSDEAGSGSDFELSSGEASDPSDEDSEPGPPKQRKAPAPQRTKAGSKSASRTHRGSHRKDPSLPAASSSSSSSKRGKKMCSDGEKAEKRSIAGIDQWLEVFCEQEEKWVCVDCVHGVVGQPLTCYKYATKPMTYVVGIDSDGWVRDVTQRYDPVWMTVTRKCRVDAEWWAETLRPYQSPFMDREKKEDLEFQAKHMDQPLPTAIGLYKNHPLYALKRHLLKYEAIYPETAAILGYCRGEAVYSRDCVHTLHSRDTWLKKARVVRLGEVPYKMVKGFSNRARKARLAEPQLREENDLGLFGYWQTEEYQPPVAVDGKVPRNEFGNVYLFLPSMMPIGCVQLNLPNLHRVARKLDIDCVQAITGFDFHGGYSHPVTDGYIVCEEFKDVLLTAWENEQAVIERKEKEKKEKRALGNWKLLAKGLLIRERLKRRYGPKSEAAAPHTDAGGGLSSDEEEGTSSQAEAARILAASWPQNREDEEKQKLKGGPKKTKREKKAAASHLFPFEQL [XPC]”, for which the melting temperature with HeLa Kyoto [1] (cell cycle stage: G1/S) is 47.7 °C; in the series with HeLa Kyoto [1] (cell cycle stage: mitosis), 48.4 °C. Further, the “solubility in G1/S (log2)” value in the series with HeLa Kyoto [2] was -0.919. The thermal stability score in the series with HeLa Kyoto [3] (setting [5]) was determined as 0.959; in the series on HeLa Kyoto [3] (cell cycle stage: mitosis), 2.74. Also, in the series on HeLa Kyoto [4], the “solubility change mitosis (log2)” value worked out at 0.43.

In the case of “MARPLVPSSQKALLLELKGLQEEPVEGFRVTLVDEGDLYNWEVAIFGPPNTYYEGGYFKARLKFPIDYPYSPPAFRFLTKMWHPNIYETGDVCISILHPPVDDPQSGELPSERWNPTQNVRTILLSVISLLNEPNTFSPANVDASVMYRKWKESKGKDREYTDIIRKQVLGTKVDAERDGVKVPTTLAEYCVKTKAPAPDEGSDLFYDDYYEDGEVEEEADSCFGDDEDDSGTEES [CDC34]”, the melting temperature with HeLa Kyoto [1] (cell cycle stage: G1/S) came out at 48.8 °C; in the series on HeLa Kyoto [1] (cell cycle stage: mitosis), 49.1 °C. The “solubility in G1/S (log2)” value with HeLa Kyoto [2] came out at 0.3. Moreover, the thermal stability score with HeLa Kyoto [3] (setting [5]) was 0.555; in the series on HeLa Kyoto [3] (cell cycle stage: mitosis) it was 2.54. The “solubility change mitosis (log2)” value in the series with HeLa Kyoto [4] is -0.0905.

Regarding “MARVLKAAAANAVGLFSRLQAPIPTVRASSTSQPLDQVTGSVWNLGRLNHVAIAVPDLEKAAAFYKNILGAQVSEAVPLPEHGVSVVFVNLGNTKMELLHPLGRDSPIAGFLQKNKAGGMHHICIEVDNINAAVMDLKKKKIRSLSEEVKIGAHGKPVIFLHPKDCGGVLVELEQA [MCEE]”, the melting temperature was found to be 57.8 °C with HeLa Kyoto [1] (cell cycle stage: G1/S) and 56.1 °C in the series with HeLa Kyoto [1] (cell cycle stage: mitosis). Moreover, in the series with HeLa Kyoto [2], the “solubility in G1/S (log2)” value was found to be 0.471. In addition, the thermal stability score in the series on HeLa Kyoto [3] (setting [5]) is -0.379; with HeLa Kyoto [3] (cell cycle stage: mitosis) it was -2.18. The “solubility change mitosis (log2)” value with HeLa Kyoto [4] was determined as 0.128.

Turning to “MASAGDTQAGPRDAADQNFDYMFKLLLIGNSSVGKTSFLFRYADDSFTPAFVSTVGIDFKVKTVYRHDKRIKLQIWDTAGQERYRTITTAYYRGAMGFLLMYDIANQESFAAVQDWATQIKTYSWDNAQVILVGNKCDLEDERVVPAEDGRRLADDLGFEFFEASAKENINVKQVFERLVDVICEKMNESLEPSSSSGSNGKGPAVGDAPAPQPSSCSC [RAB3D]”, the melting temperature with HeLa Kyoto [1] (cell cycle stage: G1/S) was 57.2 °C; with HeLa Kyoto [1] (cell cycle stage: mitosis), 57.6 °C. For the same sequence, the “solubility in G1/S (log2)” value in the series with HeLa Kyoto [2] was 0.0512. For the same sequence, the thermal stability score with HeLa Kyoto [3] (setting [5]) is -1.66; in the series on HeLa Kyoto [3] (cell cycle stage: mitosis) it was -1.58. Also, the “solubility change mitosis (log2)” value in the series on HeLa Kyoto [4] was -0.109.

In the case of “MASASGAMAKHEQILVLDPPTDLKFKGPFTDVVTTNLKLRNPSDRKVCFKVKTTAPRRYCVRPNSGIIDPGSTVTVSVMLQPFDYDPNEKSKHKFMVQTIFAPPNTSDMEAVWKEAKPDELMDSKLRCVFEMPNENDKLNDMEPSKAVPLNASKQDGPMPKPHSVSLNDTETRKLMEECKRLQGEMMKLSEENRHLRDEGLRLRKVAHSDKPGSTSTASFRDNVTSPLPSLLVVIAAIFIGFFLGKFIL [VAPA]”, the values for the melting temperature in the series on HeLa Kyoto [1] (cell cycle stage: G1/S) and in the series on HeLa Kyoto [1] (cell cycle stage: mitosis) were 54.1 °C and 54.5 °C, respectively. The “solubility in G1/S (log2)” value in the series on HeLa Kyoto [2] is 0.735. For the same sequence, the thermal stability score was -1.27 in the series with HeLa Kyoto [3] (setting [5]) and -1.24 with HeLa Kyoto [3] (cell cycle stage: mitosis). Besides, the “solubility change mitosis (log2)” value with HeLa Kyoto [4] stood at 0.0815.

As to “MASASTSKYNSHSLENESIKRTSRDGVNRDLTEAVPRLPGETLITDKEVIYICPFNGPIKGRVYITNYRLYLRSLETDSSLILDVPLGVISRIEKMGGATSRGENSYGLDITCKDMRNLRFALKQEGHSRRDMFEILTRYAFPLAHSLPLFAFLNEEKFNVDGWTVYNPVEEYRRQGLPNHHWRITFINKCYELCDTYPALLVVPYRASDDDLRRVATFRSRNRIPVLSWIHPENKTVIVRCSQPLVGMSGKRNKDDEKYLDVIRETNKQISKLTIYDARPSVNAVANKATGGGYESDDAYHNAELFFLDIHNIHVMRESLKKVKDIVYPNVEESHWLSSLESTHWLEHIKLVLTGAIQVADKVSSGKSSVLVHCSDGWDRTAQLTSLAMLMLDSFYRSIEGFEILVQKEWISFGHKFASRIGHGDKNHTDADRSPIFLQFIDCVWQMSKQFPTAFEFNEQFLIIILDHLYSCRFGTFLFNCESARERQKVTERTVSLWSLINSNKEKFKNPFYTKEINRVLYPVASMRHLELWVNYYIRWNPRIKQQQPNPVEQRYMELLALRDEYIKRLEELQLANSAKLSDPPTSPSSPSQMMPHVQTHF [MTM1]”, the figures for the melting temperature in the series with HeLa Kyoto [1] (cell cycle stage: G1/S) and with HeLa Kyoto [1] (cell cycle stage: mitosis) were 55.2 °C and 54 °C, respectively. The “solubility in G1/S (log2)” value in the series with HeLa Kyoto [2] was -0.0766. The thermal stability score was -1.72 in the series with HeLa Kyoto [3] (setting [5]) and -2.37 in the series on HeLa Kyoto [3] (cell cycle stage: mitosis). Further, the “solubility change mitosis (log2)” value with HeLa Kyoto [4] stood at 0.0496.
